One block for each binder: values may come before it.
B3: α5 integrin (endogenous) (receptor, mouse, UniProt P11688 45-1053, looked up)
chain: FNLDAEAPAVLSGPPGSLFGFSVEFYRPGRDGVSVLVGAPKANTSQPGVLQGGAVYVCPWGTSPIQCTTIQFDSKGSRILESSLYSAKGEEPVEYKSLQWFGATVRAHGSSILACAPLYSWRTEKDPQNDPVGTCYLSTENFTRILEYAPCRSDFGSAAGQGYCQGGFSAEFTKTGRVVLGGPGSYFWQGQILSATQEQISESYYPEYLINPVQGQLQTRQASSVYDDSYLGYSVAVGEFSGDDTEDFVAGVPKGNLTYGYVTVLNGSDIHSLYNVSGEQMASYFGYAVAATDTNGDGLDDLLVGAPLLMERTADGRPQEVGRVYIYLQRPAGIDPTPTLTLTGQDEFSRFGSSLTPLGDLDQDGYNDVAIGAPFGGEAQQGVVFIFPGGPGGLSTKPSQVLQPLWAAGRTPDFFGSALRGGRDLDGNGYPDLIVGSFGVDKALVYRGRPIISASASLTIFPSMFNPEERSCSLEGNPVSCINLSFCLNASGKHVPNSIGFEVELQLDWQKQKGGVRRALFLTSKQATLTQTLLIQNGAREDCREMKIYLRNESEFRDKLSPIHIALNFSLDPKAPMDSHGLRPVLHYQSKSRIEDKAQILLDCGEDNICVPDLQLDVYGEKKHVYLGDKNALNLTFHAQNLGEGGAYEAELRVTAPLEAEYSGLVRHPGNFSSLSCDYFAVNQSRQLVCDLGNPMKAGTSLWGGLRFTVPHLQDTKKTIQFDFQILSKNLNNSQSNVVSFPLSVEAQAQVSLNGVSKPEAVIFPVSDWNPQDQPQKEEDLGPAVHHVYELINQGPSSISQGVLELSCPQALEGQQLLYVTKVTGLSNCTSNYTPNSQGLELDPETSPHHLQKREAPGRSSTASGTQVLKCPEAKCFRLRCEFGPLHRQESRSLQLHFRVWAKTFLQREYQPFSLQCEAVYEALKMPYQILPRQLPQKKLQVATAVQWTKAEGSNGVPLWIIILAILFGLLLLGLLIYVLYKLGFFKRSLPYGTAMEKAQLKPPATSDA
notes: whole, on cells; Present in cells as the α5β1 heterodimer; detected by immunofluorescence or immunoprecipitated from lysates; also called endogenous α5; alpha5 integrin

Tests used:
[1] = biological target: T1, Purified GST (UniProt P08515 1-218 = GST); assay: GST pull-down with purified proteins, western blot with anti-His
T1 construct: Control bait in the pull-down assay
T1 sequence (P08515 whole entry): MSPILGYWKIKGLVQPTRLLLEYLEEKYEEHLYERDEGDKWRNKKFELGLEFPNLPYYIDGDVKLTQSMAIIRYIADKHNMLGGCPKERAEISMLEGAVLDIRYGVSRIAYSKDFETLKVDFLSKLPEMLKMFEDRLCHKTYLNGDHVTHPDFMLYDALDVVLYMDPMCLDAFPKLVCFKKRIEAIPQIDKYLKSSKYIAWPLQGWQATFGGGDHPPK
Procedure: After incubation, GST- and GST-α5 beads containing the His-LERER bound fraction were recovered and analyzed by western blotting along with aliquots of unbound protein from the supernatant.
Binding Assays: GST-α5 integrin constructs and His-tagged variants of the LERER repeat region were expressed and purified from E. Coli. 10 nM α5 integrin cytoplasmic tail was immobilized on Glutathione beads and incubated for 1 hour, 4° C. with 200 nM His-LERER variants at constant agitation in PBS with 0.1% TritonX-100 and 2 mM βME. Beads were washed three times, and proteins were eluted in sample buffer, and assayed by western blot.

[2] = biological target: B3; assay: recruitment of α5 to mitochondria in cells expressing FP4-Mito, immunofluorescence
Procedure: Microscopy—Cells were fixed in 4% paraformaldehyde in PHEM buffer warmed to 37° C. for 20 minutes. Cells were permeabilized in 0.2% TX-100 and blocked in 10% Donkey Serum. […] (Abcam ab25247), integrin αv [RMV-7] (Abcam ab63490), integrin α6 [GoH3] […] F-actin was stained with AlexaFluor Phalloidin (Invitrogen). Z series of images were taken on an Olympus microscope with a 60× plan apo objective. Images were deconvolved using Deltavision Softworx software.

[3] = biological target: B3; assay: cell-based or functional assay
[4] = biological target: p34 subunit of Arp2/3 (endogenous) (UniProt Q9CVB6 1-300); assay: α5 immunoprecipitation from NIH3T3 cell lysates, western blot
Source text: To determine if endogenously expressed Mena and α5 integrin form complexes within cells, α5 integrin was immunoprecipitated from NIH3T3 cell lysates followed by Western blot analysis (FIG. 2B).
Western Blotting/Immunoprecipitation. Standard procedures were used for protein electrophoresis, western blotting and immunoprecipitations. Western blots were developed using HRP secondary antibodies and ECL reagent (Amersham). […] Beads were washed three times in lysis buffer, and proteins were eluted in sample buffer.

[5] = biological target: B3; assay: recruitment to mitochondria in cells expressing FP4-Mito, immunofluorescence
Procedure: Microscopy—Cells were fixed in 4% paraformaldehyde in PHEM buffer warmed to 37° C. for 20 minutes. Cells were permeabilized in 0.2% TX-100 and blocked in 10% Donkey Serum. […] (Abcam ab25247), integrin αv [RMV-7] (Abcam ab63490), integrin α6 [GoH3] […] F-actin was stained with AlexaFluor Phalloidin (Invitrogen).

B1: Purified His-tagged LERER repeat protein (His-LERER) (other, mouse, UniProt Q03173 175-252, looked up)
chain: LERERMERERLERERLERERLERERLEQEQLERQRQEREHVERLERERLERLERERQERERERLEQLEREQVEWERER
notes: domain: LERER repeat; Expressed and purified from E. coli (pQE80L-His-LERER); also called LERER repeat region of Mena; not shown: His tag of the pQE80L vector
binding result [1]: no binding (tested: 200 nM His-LERER variants)

Binder: B3
binding result [4]: no binding

Continued, values first:

binding result [2]: no binding
t1/2 of fluorescence recovery (FRAP) in nascent, peripheral adhesions, cells plated for 30 minutes on FN [3]: 11.9 s
B2: GFP-MenaΔLERER (other, UniProt Q03173-3 1-541, looked up)
chain: MSEQSICQARAAVMVYDDANKKWVPAGGSTGFSRVHIYHHTGNNTFRVVGRKIQDHQVVINCAIPKGLKYNQATQTFHQWRDARQVYGLNFGSKEDANVFASAMMHALEVLNSQEAGPTLPRQNSQLPAQVQNGPSQEELEIQRRQLQEQQRQKERMSNAAAPASAETPLNPELGDSSASEPGLQAASQPAESPTPQGLVLGPPAPPPPPPLPSGPAYASALPPPPGPPPPPPLPSTGPPPPPPPPPPLPNQAPPPPPPPPAPPLPASGIFSGSTSEDNRPLTGLAAAIAGAKLRKVSRVEDGSFPGGGNTGSVSLASSKADAGRGNGPLPLGGSGLMEEMSALLARRRRIAEKGSTIETEQKEDRNEDAEPITAKAPSTSTPEPTRKPWERTNTMNGSKSPVISRPKSTPSSQPSANGVQTEGLDYDRLKQDILDEMRKELAKLKEELIDAIRQELSKSNTA
notes: Expressed in MVD7 cells; also called Mena mutant lacking the LERER repeat; not shown: GFP tag

binding result [5]: binds
B4: β1 integrin (endogenous) (receptor, mouse, UniProt P09055 21-798, looked up)
chain: QTDKNRCLKANAKSCGECIQAGPNCGWCTNTTFLQEGMPTSARCDDLEALKKKGCQPSDIENPRGSQTIKKNKNVTNRSKGMAEKLRPEDITQIQPQQLLLKLRSGEPQKFTLKFKRAEDYPIDLYYLMDLSYSMKDDLENVKSLGTDLMNEMRRITSDFRIGFGSFVEKTVMPYISTTPAKLRNPCTSEQNCTSPFSYKNVLSLTDRGEFFNELVGQQRISGNLDSPEGGFDAIMQVAVCGSLIGWRNVTRLLVFSTDAGFHFAGDGKLGGIVLPNDGQCHLENNVYTMSHYYDYPSIAHLVQKLSENNIQTIFAVTEEFQPVYKELKNLIPKSAVGTLSGNSSNVIQLIIDAYNSLSSEVILENSKLPDGVTINYKSYCKNGVNGTGENGRKCSNISIGDEVQFEISITANKCPNKESETIKIKPLGFTEEVEVVLQFICKCNCQSHGIPASPKCHEGNGTFECGACRCNEGRVGRHCECSTDEVNSEDMDAYCRKENSSEICSNNGECVCGQCVCRKRDNTNEIYSGKFCECDNFNCDRSNGLICGGNGVCRCRVCECYPNYTGSACDCSLDTGPCLASNGQICNGRGICECGACKCTDPKFQGPTCETCQTCLGVCAEHKECVQCRAFNKGEKKDTCAQECSHFNLTKVESREKLPQPVQVDPVTHCKEKDIDDCWFYFTYSVNGNNEAIVHVVETPDCPTGPDIIPIVAGVVAGIVLIGLALLLIWKLLMIIHDRREFAKFEKEKMNAKWDTGENPIYKSAVTTVVNPKYEGK
notes: whole, on cells

binding result [2]: no binding
B5: GFP-tagged EVH1 domain of Mena (other, UniProt Q03173 1-112, looked up)
chain: MSEQSICQARAAVMVYDDANKKWVPAGGSTGFSRVHIYHHTGNNTFRVVGRKIQDHQVVINCAIPKGLKYNQATQTFHQWRDARQVYGLNFGSKEDANVFASAMMHALEVLN
notes: domain: EVH1 domain; not shown: GFP tag
